{"source": "patent US20250002588A1", "about": "(DIAGONAL THERAPEUTICS, published 2025)", "binders": {"B1": {"name": "DGL633 (bispecific antibody)", "chain 1": "not shown", "chain 2": "EVQLLESGGGLVQPGGSLRLSCAASGFTFSNAWMNWVRQAPGKGLEWVSSISSSSSYIYYADSVKGRFTISRDNSKNTLYLQMNSLRAEDTAVYYCARAVAAGGMFWGLDQWGQGTLVTVTSSGGGGSGGGGSGGGGSQSVLTQPPSASGTPGQRVTISCSGSRSNIGSNSVHWYQQLPGTAPKLLIYGNSNRPSGVPDRFSGSKSGTSASLAISGLRSEDEADYYCQSYDSSLNDHVVFGGGTKLTVLDKTHTCPPCPAPEAAGAPSVFLFPPKPKDTLMISRTPEVTCVVVDVSHEDPEVKFNWYVDGVEVHNAKTKPREEQYNSTYRVVSVLTVLHQDWLNGKEYKCKVSNKALPAPIEKTISKAKGQPREPQVCTLPPSRDELTKNQVSLSCAVKGFYPSDIAVEWESNGQPENNYKTTPPVLDSDGSFFLVSKLTVDKSRWQQGNVFSCSVMHEALHNHYTQKSLSLSPGWSHPQFEK"}, "B2": {"name": "DGL625 (bispecific antibody)", "chain 1": "not shown", "chain 2": "EVQLLESGGGLVQPGGSLRLSCAASGFTFSDYYMTWIRQAPGKGLEWVSSISGGSTYYADSRKGRFTISRDNSENTLYLQMNSLRAEDTAVYYCARDFGVAGWFGQYGMDVWGQGTLVTVSSGGGGSGGGGSGGGGSQSVLTQPPSASGTPGQRVTISCTGSSSNIGAGYDVHWYQQLPGTAPKLLIYRSNQRPSGVPDRFSGSKSGTSASLAISGLRSEDEADYYCSSYAGNYNLVFGGGTKLTVLDKTHTCPPCPAPEAAGAPSVFLFPPKPKDTLMISRTPEVTCVVVDVSHEDPEVKFNWYVDGVEVHNAKTKPREEQYNSTYRVVSVLTVLHQDWLNGKEYKCKVSNKALPAPIEKTISKAKGQPREPQVCTLPPSRDELTKNQVSLSCAVKGFYPSDIAVEWESNGQPENNYKTTPPVLDSDGSFFLVSKLTVDKSRWQQGNVFSCSVMHEALHNHYTQKSLSLSPGWSHPQFEK"}, "B3": {"name": "DGL628 (bispecific antibody)", "chain 1": "not shown", "chain 2": "B2 chain 2"}, "B4": {"name": "DGL626 (bispecific antibody)", "chain 1": "not shown", "chain 2": "B2 chain 2"}, "B5": {"name": "DGL629 (bispecific antibody)", "chain 1": "not shown", "chain 2": "B2 chain 2"}}, "key": {"[1]": {"target": "ALK-1/BMPR-2 receptor pair of the PathHunter U2Os dimerization cells (DiscoverX 93-0962C3) (UniProt P37023 22-503; Q13873 27-1038)", "sequence (P37023 22-503, one chain of several)": "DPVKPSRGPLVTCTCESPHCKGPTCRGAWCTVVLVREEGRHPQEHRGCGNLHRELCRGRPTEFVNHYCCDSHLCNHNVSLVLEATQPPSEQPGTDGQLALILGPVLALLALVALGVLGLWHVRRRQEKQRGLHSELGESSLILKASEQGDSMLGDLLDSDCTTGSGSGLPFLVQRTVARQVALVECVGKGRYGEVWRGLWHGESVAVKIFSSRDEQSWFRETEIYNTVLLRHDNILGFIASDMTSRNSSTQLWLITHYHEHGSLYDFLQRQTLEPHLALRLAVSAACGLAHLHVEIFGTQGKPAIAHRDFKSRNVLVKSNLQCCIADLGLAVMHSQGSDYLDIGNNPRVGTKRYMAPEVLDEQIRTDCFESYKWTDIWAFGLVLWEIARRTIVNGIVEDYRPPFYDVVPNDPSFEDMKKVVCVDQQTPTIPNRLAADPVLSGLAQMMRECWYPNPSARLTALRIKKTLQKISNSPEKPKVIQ", "test": "cell-based or functional assay"}, "[2]": {"target": "human ALK1 protein (Sino Biological, #10066-H08H) (human, UniProt P37023 22-118)", "sequence (P37023 22-118 limits assumed)": "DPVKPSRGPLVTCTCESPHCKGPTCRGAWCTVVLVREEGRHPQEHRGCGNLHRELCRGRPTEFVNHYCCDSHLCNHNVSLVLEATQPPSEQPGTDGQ", "test": "ELISA, coated human ALK1", "outline": "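Plates coated overnight at 4 °C with 2 μg/ml human BMPRII or human ALK1 protein. DGL antibodies, diluted in PBS/0.1% BSA, bound 1 h at room temperature. Detection used anti-human IgG Fc–HRP (2 μg/ml, 1 h) and TMB, with absorbance read at 450 nm after stop solution.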"}, "[3]": {"target": "T1, human BMPRII protein (Sino Biological, #10551-H08H) (human, UniProt Q13873 27-150)", "T1 sequence (looked up)": "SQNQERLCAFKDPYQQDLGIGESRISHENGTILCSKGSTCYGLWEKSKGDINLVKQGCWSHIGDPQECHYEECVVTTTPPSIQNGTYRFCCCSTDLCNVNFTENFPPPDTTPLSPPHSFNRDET", "test": "ELISA, coated human BMPRII", "protocol": "These binders were then tested using an ELISA assay. High binding plates (Corning, 9018) were coated with either 2 μg/ml of human BMPRII protein (Sino Biological, #10551-H08H) or 2 μg/ml of human ALK1 protein (Sino Biological, #10066-H08H) overnight at 4C. The plates were then washed three times with wash buffer (R&D Systems, WA126). […] The plates were then washed three times with wash buffer and DGL antibodies or controls, which were diluted with PBS and 0.1% BSA. The antibodies were incubated for one hour at room temperature and then the plates were washed three times with wash buffer. The plates were then incubated with mouse anti-human IgG Fc secondary—HRP (diluted with PBS/0.1% BSA); 100 ul per well at 2 μg/ml and incubated at room temperature for one hour. The plate was washed three times in wash buffer and then 100 ul TMB (R&D Systems, DY9998B, substrate reagent pack). After the wells turn blue, 50 ul of stop solution (R&D Systems, DY994) was added to each well and the absorbance of the plate was read at 450 nm. results can be found in Table 8."}}}
{"binder": "B1", "values": [{"measurement": "% Emax BMP9", "setting": "[1]", "value": 32, "unit": "%"}, {"measurement": "Emax (RLU)", "setting": "[1]", "value": 586000, "unit": "RLU"}, {"measurement": "Abs450 1 nM", "setting": "[2]", "value": 0.15}, {"measurement": "Abs450 10 nM", "setting": "[2]", "value": 0.78}, {"measurement": "Abs450 100 nM", "setting": "[2]", "value": 1.42}, {"measurement": "Abs450 1 nM", "setting": "[3]", "value": 0.12}, {"measurement": "Abs450 10 nM", "setting": "[3]", "value": 0.14}, {"measurement": "Abs450 100 nM", "setting": "[3]", "value": 0.37}]}
{"binder": "B2", "values": [{"measurement": "% Emax BMP9", "setting": "[1]", "value": 17, "unit": "%"}, {"measurement": "Emax (RLU)", "setting": "[1]", "value": 615000, "unit": "RLU"}, {"measurement": "Abs450 1 nM", "setting": "[2]", "value": 0.07}, {"measurement": "Abs450 10 nM", "setting": "[2]", "value": 0.07}, {"measurement": "Abs450 100 nM", "setting": "[2]", "value": 0.11}, {"measurement": "Abs450 1 nM", "setting": "[3]", "value": 0.17}, {"measurement": "Abs450 10 nM", "setting": "[3]", "value": 0.35}, {"measurement": "Abs450 100 nM", "setting": "[3]", "value": 1.21}]}
{"binder": "B3", "values": [{"measurement": "% Emax BMP9", "setting": "[1]", "value": 24, "unit": "%"}, {"measurement": "Emax (RLU)", "setting": "[1]", "value": 884000, "unit": "RLU"}, {"measurement": "Abs450 1 nM", "setting": "[2]", "value": 0.05}, {"measurement": "Abs450 10 nM", "setting": "[2]", "value": 0.12}, {"measurement": "Abs450 100 nM", "setting": "[2]", "value": 0.52}, {"measurement": "Abs450 1 nM", "setting": "[3]", "value": 0.17}, {"measurement": "Abs450 10 nM", "setting": "[3]", "value": 0.27}, {"measurement": "Abs450 100 nM", "setting": "[3]", "value": 0.8}]}
{"binder": "B4", "values": [{"measurement": "% Emax BMP9", "setting": "[1]", "value": 7, "unit": "%"}, {"measurement": "Emax (RLU)", "setting": "[1]", "value": 258000, "unit": "RLU"}, {"measurement": "Abs450 1 nM", "setting": "[2]", "value": 0.06}, {"measurement": "Abs450 10 nM", "setting": "[2]", "value": 0.07}, {"measurement": "Abs450 100 nM", "setting": "[2]", "value": 0.06}, {"measurement": "Abs450 1 nM", "setting": "[3]", "value": 0.17}, {"measurement": "Abs450 10 nM", "setting": "[3]", "value": 0.25}, {"measurement": "Abs450 100 nM", "setting": "[3]", "value": 0.71}]}
{"binder": "B5", "values": [{"measurement": "% Emax BMP9", "setting": "[1]", "value": 12, "unit": "%"}, {"measurement": "Emax (RLU)", "setting": "[1]", "value": 424000, "unit": "RLU"}, {"measurement": "Abs450 1 nM", "setting": "[2]", "value": 0.08}, {"measurement": "Abs450 10 nM", "setting": "[2]", "value": 0.08}, {"measurement": "Abs450 100 nM", "setting": "[2]", "value": 0.08}, {"measurement": "Abs450 1 nM", "setting": "[3]", "value": 0.18}, {"measurement": "Abs450 10 nM", "setting": "[3]", "value": 0.29}, {"measurement": "Abs450 100 nM", "setting": "[3]", "value": 0.9}]}
